We go through 36 sequences from the supplement of paper PMC12764529.

Data set [1] can be described thus: folding stability dG unfold (combined trypsin and chymotrypsin); higher = more stable. Put shortly:
(§1)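 Unfolding free energy was derived, per protease or combined, by relating Bayesian-fitted K50 values from sequencing counts to a sequence-predicted unfolded-state K50 and a shared folded-state K50. The underlying digests exposed cysteine-free mini-proteins under 80 residues, in a PA-tagged cDNA display construct, to trypsin and chymotrypsin at 11 threefold-diluted concentrations and to a no-protease condition. A filter kept only designs with AlphaFold2 dimer inter-PAE above 15.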

Data set [2] can be described thus: folding stability dG unfold from chymotrypsin proteolysis; higher = more stable. The gist of the method: as §1
Data set [3] in a line: folding stability dG unfold from trypsin proteolysis; higher = more stable. The gist of the method: as §1

± gives the half width of the 95% confidence interval.

Regarding “SAGGSAMKAKEIKRLKLKDRPLVVIFLENPEGGYSVLVIPLENPEKVEELLEELVKEGLLDEITPESAGGSA [r15_575_TrMRF]”, the “folding stability dG unfold” value came to 1.59 ± 0.074 kcal/mol in data set [1], 1.93 ± 0.082 kcal/mol in data set [2] and 1.03 ± 0.031 kcal/mol in data set [3].
The corresponding values for “SAGGSAMKIEEIEKVELKKNENGELTAKIIIKDKKTNKYIEIEITVKPGMTLEEIKKLAEELLKKLSAGGSA [r15_181_TrROS_Hall]” are 2.73 ± 0.14 kcal/mol, 1.96 ± 0.075 kcal/mol and 3.42 ± 0.13 kcal/mol.
The corresponding values for “SAGGSAMKITLKTKDGKEIEIEVEEKTNENGEKYLVLKIKDKKTNKEYTIVMSKEELEELLKKLLSSAGGSA [r15_92_TrROS_Hall]” are 5.55 ± 0.17 kcal/mol, 5.48 ± 0.11 kcal/mol and 4.33 ± 0.21 kcal/mol.
For “SAGGSAMKLTFTDSKGRTIEITVEKKYLPNGEPYLIITIKYPDTDEEIVITMPTSNIDEILEKLLNSAGGSA [r15_92_JUSTAS]” the same measures were 4.27 ± 0.24 kcal/mol, 4.28 ± 0.11 kcal/mol and 4.06 ± 0.32 kcal/mol.
On to “SAGGSAMLDNLVPVGSVTVVERFPDGLLRVVNYTFWRDPESGAWYVSADVEVFPLLPEDPVLLEAGSAGGSA [r15_207_TrMRF]”, for which the “folding stability dG unfold” value in data set [1] stood at 3.6 ± 0.11 kcal/mol; in data set [2], 3.88 ± 0.048 kcal/mol; in data set [3], 2.24 ± 0.11 kcal/mol.
For “SAGGSAMLENLPELDIKIKVEYKAEILPDGSLLIPAKIELEIGDKKFEFEAKILINPNGEITIEIGSAGGSA [r15_891_TrMRF]” the same measures were 2.96 ± 0.31 kcal/mol, 2.45 ± 0.31 kcal/mol and 2.97 ± 0.26 kcal/mol.
As to “SAGGSAMLPDEVTVKPVEMPVPPDLTLEELEQEVRERAGPGTSVEVSYDPATGVATVTVTDARPALSAGGSA [r15_749_JUSTAS]”, the “folding stability dG unfold” value in data set [1] was 1.03 ± 0.04 kcal/mol; in data set [2] it was 1.44 ± 0.029 kcal/mol; in data set [3], -0.162 ± 0.035 kcal/mol.
Regarding “SAGGSAMLRVFEKEHPGPFSITVLAGPGLSEEEIEELAEKLAEKKIEIEKKKIELEKKGKKPIFKKSAGGSA [r15_704_JUSTAS]”, the “folding stability dG unfold” value in data set [1] amounted to 0.0936 ± 0.43 kcal/mol; in data set [2] it was 0.235 ± 0.43 kcal/mol; in data set [3], 0.327 ± 0.21 kcal/mol.
Consider “SAGGSAMMTVTITIPKENLTKEEIKKALEEAGAKVVKVEEKDGKVTVTVEMTPEQVEKLKEALKKLSAGGSA [r15_161_TrROS_Hall]”, for which the “folding stability dG unfold” value in data set [1] was found to be 4.14 ± 0.45 kcal/mol; in data set [2], 3.53 ± 0.28 kcal/mol; in data set [3], 3.98 ± 0.46 kcal/mol.
On to “SAGGSAMNPKLEALPEVEITEEKTEEYKTAENKKLLVKEYKSNAEPGKTYKVIYDPETGKVLSVEESAGGSA [r15_66_JUSTAS]”, for which the “folding stability dG unfold” value in data set [1] was 0.737 ± 0.1 kcal/mol; in data set [2], 1.1 ± 0.11 kcal/mol; in data set [3], 0.0954 ± 0.059 kcal/mol.
For “SAGGSAMPDDPLVLRANIPFVVVGPDGRPRLFRREILVPFASEEEAERFRRELEALGAEVEPVARASAGGSA [r15_117_TrMRF]” the same measures were 1.93 ± 0.12 kcal/mol, 2.17 ± 0.13 kcal/mol and 1.62 ± 0.051 kcal/mol.
For “SAGGSAMPDLAAAPGVTRVEPYPDGLVEIHLDGSEEARDEIEERLRAAGDFEIYRLPDRDTLLVRASAGGSA [r15_554_TrMRF]” the same measures were -0.025 ± 0.29 kcal/mol, -0.165 ± 0.55 kcal/mol and -0.00819 ± 0.26 kcal/mol.
The corresponding values for “SAGGSAMPDMTAEELAAEVAKKLPPGEKVLIKIRNKNGETKTFELGEDISDLPADEVTEIEIEVLPSAGGSA [r15_50_TrROS_Hall]” are 0.781 ± 0.054 kcal/mol, 1.05 ± 0.036 kcal/mol and 0.248 ± 0.073 kcal/mol.
On to “SAGGSAMPLEELKKVTITLSFYNENGELVAEMTLEYDEETDVFTMTVKVRYNGKTYTVEMEFKLLPSAGGSA [r15_278_TrROS_Hall]”, for which the “folding stability dG unfold” value in data set [1] is 5.23 ± 0.32 kcal/mol; in data set [2], 5.29 ± 0.2 kcal/mol; in data set [3], 4.5 ± 0.56 kcal/mol.
Consider “SAGGSAMPLLKPPKTIRLRILFKVPEPGKELDITEEAVRELFNPFGAKVRIYRDGDYVLIEVEFVVSAGGSA [r15_377_TrMRF]”, for which the figures for the “folding stability dG unfold” value in data set [1], in data set [2] and in data set [3] were 3.85 ± 0.15 kcal/mol, 3.37 ± 0.089 kcal/mol and 4.03 ± 0.097 kcal/mol, respectively.
The corresponding values for “SAGGSAMPVEFPSEGVVEAVNPKTGKVYLIRYETGDTKTRFVIFEPGTGEVRVIDEDTTFEEAVEDSAGGSA [r15_234_TrMRF]” are 0.674 ± 0.088 kcal/mol, 0.382 ± 0.16 kcal/mol and 0.802 ± 0.036 kcal/mol.
For “SAGGSAMREIRVGDTVVRILSIDPSTGEVHIAVREDLPPETIEAARRALEEAGLRFRVEPVPEELLSAGGSA [r15_570_TrMRF]” the same measures were 2.15 ± 0.053 kcal/mol, 2.33 ± 0.028 kcal/mol and 1.73 ± 0.065 kcal/mol.
In the case of “SAGGSAMRIKVTLENGEEIEIEIEESMTEEEVKELAEELAKKLAEELGIKEVKVEVEEVELPEEEESAGGSA [r15_33_TrROS_Hall]”, the entries for the “folding stability dG unfold” value in data set [1], in data set [2] and in data set [3] were 2.53 ± 0.11 kcal/mol, 2.96 ± 0.054 kcal/mol and 1.68 ± 0.11 kcal/mol, respectively.
For “SAGGSAMRPLELENPNGREITIWYNPGEGHFQVEIERYEPPPNGKKKPQRHTFMVNSPEDLLDFIKSAGGSA [r15_31_TrROS]” the same measures were 1.65 ± 0.19 kcal/mol, 1.6 ± 0.15 kcal/mol and 1.57 ± 0.046 kcal/mol.
The corresponding values for “SAGGSAMTITIKIENEDVTIPSSKSKEEILKAIKENPDVPVTVTLPDGTPVTLSPEELEKLIKEEKSAGGSA [r15_36_JUSTAS]” are 1.11 ± 0.11 kcal/mol, 1.23 ± 0.022 kcal/mol and 1.02 ± 0.032 kcal/mol.
The corresponding values for “SAGGSAMTIYIKNKDGYIIKIEITKIEEIGPNYIKIKMKMEIINKNGEKKEIELELIFKVKNPEELSAGGSA [r15_1035_TrROS_Hall]” are 3.79 ± 0.28 kcal/mol, 4 ± 0.099 kcal/mol and 2.54 ± 0.33 kcal/mol.
In the case of “SAGGSAMTKVTVTFDPVTGTYTIKTTDSKGPSEYPLPKSFLEKTPLSEVAKKLNLNISEFTIEPNPSAGGSA [r15_801_JUSTAS]”, the entries for the “folding stability dG unfold” value in data set [1], in data set [2] and in data set [3] were 1.14 ± 0.092 kcal/mol, 1.25 ± 0.099 kcal/mol and 0.771 ± 0.044 kcal/mol, respectively.
For “SAGGSAMTLEDLKDEFVVITLPDGTVVKAKVEEVDTKGPVLTILVGGKPILIPADAPVKIEIEPPKSAGGSA [r15_355_JUSTAS]”, the “folding stability dG unfold” value is 1.53 ± 0.043 kcal/mol in data set [1], 1.36 ± 0.033 kcal/mol in data set [2] and 1.74 ± 0.063 kcal/mol in data set [3].
Turning to “SAGGSAMTPEEIRNMSLEEILKLIKEKLEKGEKVEIEITLPDGRKLRITFERLPNGEIKITIEEVDSAGGSA [r15_857_TrROS_Hall]”, the “folding stability dG unfold” value came to 4.72 ± 0.28 kcal/mol in data set [1], 5.04 ± 0.32 kcal/mol in data set [2] and 3.53 ± 0.2 kcal/mol in data set [3].
In the case of “SAGGSAMTPVTLEITSEEELEAKIEELAPPGRTVTINVTSTTEKTRVEDDVTRDYTVVTANVTFPPSAGGSA [r15_95_JUSTAS]”, the figures for the “folding stability dG unfold” value in data set [1], in data set [2] and in data set [3] were 0.399 ± 0.12 kcal/mol, 0.573 ± 0.04 kcal/mol and 0.181 ± 0.1 kcal/mol, respectively.
The corresponding values for “SAGGSAMTVTLIVGDKPITIPLTASLSDIKAALEEHPDVPVYIILPNGKRIEMKVSDLIKMMEKAGSAGGSA [r15_36_TrMRF]” are 3.16 ± 0.1 kcal/mol, 3.35 ± 0.099 kcal/mol and 2.99 ± 0.058 kcal/mol.
The corresponding values for “SAGGSAMVKTADGKEVKVEKVIPLEEMSLEELKALAEKNNKPILIVDKKTKKVIVLTKEELEKLLKSAGGSA [r15_904_TrROS_Hall]” are 1.33 ± 0.22 kcal/mol, 1.73 ± 0.071 kcal/mol and 0.858 ± 0.066 kcal/mol.
The corresponding values for “SAGGSAMVLVRIKLKHPEREEVIEVPAGELLEILEHPELNEHWEIVEIEAREVPPEFVEPEELEEESAGGSA [r15_460_TrMRF]” are 0.888 ± 0.13 kcal/mol, 0.896 ± 0.18 kcal/mol and 0.85 ± 0.087 kcal/mol.
As to “SAGGSAMVRIEVELENGEKLEIEIEVPEEMTEEELLEKAKELAKELAEKLGIPEAKVKVVKIEVVPSAGGSA [r15_463_TrROS_Hall]”, the “folding stability dG unfold” value was found to be 3.92 ± 0.23 kcal/mol in data set [1], 2.92 ± 0.22 kcal/mol in data set [2] and 4.06 ± 0.16 kcal/mol in data set [3].
For “SAGGSAMVVIRTTKPGGKVEVLAVNPEDGSKTVKTFSSSTSPKEVFEEVNKEFGGEVKVEKVELKASAGGSA [r15_544_TrMRF]” the same measures were -0.512 ± 0.18 kcal/mol, -0.912 ± 0.58 kcal/mol and -0.439 ± 0.18 kcal/mol.
For “SAGGSAMVYLVTVTIKSEGKEVRYKEWVESDEPEKLIEKVKKEYPNEEIKVEITPFPSKEEAEKLLSAGGSA [r15_889_JUSTAS]” the same measures were 2.41 ± 0.096 kcal/mol, 2.48 ± 0.042 kcal/mol and 2.36 ± 0.098 kcal/mol.
For “SAGGSAMYKVEVTATTSSSSTPYPLEMDFETEEEAKERVKKYLEEKYGDPISSIETKIEPVEPGLESAGGSA [r15_670_JUSTAS]” the same measures were -0.234 ± 0.36 kcal/mol, -0.645 ± 0.57 kcal/mol and -0.314 ± 0.21 kcal/mol.
Take “SAGGSAMYYRFEIPRPDGVIEEIWIKMTPEEAKALVEALEADPNVASVKVEAITEEEARKLGIFENSAGGSA [r15_39_JUSTAS]”: the “folding stability dG unfold” value in data set [1] amounted to 4.34 ± 0.18 kcal/mol; in data set [2] it was 4.46 ± 0.12 kcal/mol; in data set [3], 4.17 ± 0.28 kcal/mol.
The corresponding values for “SAGGSANGYFILIKIEEIKLTKMRRDPDGKQWQWNFSVKIKIEVVKVFRIKPDPNGNWKIEPGDPISAGGSA [r15_162_TrROS]” are 3.25 ± 0.12 kcal/mol, 3.33 ± 0.053 kcal/mol and 3.01 ± 0.11 kcal/mol.
As to “SAGGSANNWKPIGEFPFRHPDGWRVTVPIWRDPGEGNIKINVKYQGPNGPPSKQMKEWAKKLLDEISAGGSA [r15_529_TrROS]”, the figures for the “folding stability dG unfold” value in data set [1], in data set [2] and in data set [3] were 0.866 ± 0.31 kcal/mol, 0.654 ± 0.32 kcal/mol and 0.936 ± 0.15 kcal/mol, respectively.
For “SAGGSANPNGKPWVEVEVSFMIPIDDEDIADALGGPPKPGDWLMITVKIRVYPDGNVEIDINLHPMSAGGSA [r15_91_TrROS]” the same measures were 3.95 ± 0.19 kcal/mol, 3.88 ± 0.22 kcal/mol and 3.96 ± 0.14 kcal/mol.
